The text below walks through data of patent US20190241623A1 (EVAXION BIOTECH A S, published 2019).

B1: SEQ ID NO 21 (peptide)
peptide: EPINFILKSSTKLKA
notes: 15-mer peptide selected in silico from the S. aureus proteomes
B2: SEQ ID NO 30 (peptide)
peptide: LDQIIAQANLRLATM
notes: as for B1
B3: SEQ ID NO 38 (peptide)
peptide: VLFYLRSNKRQIIEK
notes: as for B1
B4: SEQ ID NO 39 (peptide)
peptide: WKRIGRLKSIPIFMY
notes: as for B1
B5: SEQ ID NO 24 (peptide)
peptide: IIKKLFRLPAIKRFE
notes: as for B1
B6: SEQ ID NO 32 (peptide)
peptide: MHFIAISINHRTADV
notes: as for B1
B7: SEQ ID NO 34 (peptide)
peptide: SSNVYMFKTALKLAG
notes: as for B1
B8: SEQ ID NO 37 (peptide)
peptide: TSQFHVLRALRLAQK
notes: as for B1
B9: SEQ ID NO 33 (peptide)
peptide: QRHFQIGYNRAARII
notes: as for B1
B10: SEQ ID NO 31 (peptide)
peptide: LMGIRAFRKLLPNIP
notes: as for B1
B11: SEQ ID NO 40 (peptide)
peptide: YFRFQYFNPLKSERY
notes: as for B1
B12: SEQ ID NO 35 (peptide)
peptide: STFIYKIANERLFSR
notes: as for B1
B13: SEQ ID NO 28 (peptide)
peptide: KRIFKMSPIHHHFEL
notes: as for B1
B14: SEQ ID NO 27 (peptide)
peptide: KHQIRMLSIPRDTIS
notes: as for B1
B15: SEQ ID NO 36 (peptide)
peptide: SVTIIKSLQAIRVPF
notes: as for B1
B16: SEQ ID NO 29 (peptide)
peptide: KTLFVALNNKARIPE
notes: as for B1
B17: SEQ ID NO 22 (peptide)
peptide: FLKLFRITNPIARGL
notes: as for B1
B18: SEQ ID NO 25 (peptide)
peptide: ILLGYFVAQRALVKA
notes: as for B1
B19: SEQ ID NO 23 (peptide)
peptide: GLYFVAMNNLKAAGQ
notes: as for B1
B20: SEQ ID NO 26 (peptide)
peptide: KADALKAITALKLQM
notes: as for B1

In the first test the target is T1, MHC Class II molecule DRB1*01:01 (UniProt P01903 26-216; P01911 30-227).
T1 construct: Assay done by Immunitrack; the construct of the MHC II molecule is not described
The test is described as follows: peptide:MHC II complex stability assay (Immunitrack).
With B1, the binding result is given as “binds”.
As to B2, the binding result is recorded as “binds”.
Turning to B3, the binding result is recorded as “binds”.
For B4, the binding result was “binds”.
As to B5, the binding result is given as “binds”.
Still for that read-out and setting: the same measure for B6: “binds”.
B7: the binding result is reported as “binds”.
For B8, the binding result is “binds”.
The same measure, in the same setting: the same measure for B9: “binds”; for B10: “binds”; for B11: “binds”.
Turning to B12, the binding result is listed as “binds”.
As to B13, the binding result was “binds”.
The same measure, in the same setting: to B14 belongs “binds”.
With B15, the binding result is recorded as “binds”.
In the case of B16, the binding result is given as “binds”.
Regarding B17, the binding result was “binds”.
B18: the binding result was “binds”.
Turning to B19, the binding result was “binds”.
Consider B20, for which the binding result was “binds”.

A further test concerns the target T2, MHC Class II molecule DRB1*04:01 (UniProt P01903 26-216; P01911 30-227).
T2 construct: Assay done by Immunitrack; the construct of the MHC II molecule is not described
The description is as above.
For the molecule B1, the binding result is given as “binds”.
The same measure, in the same setting: the same measure for B2: “binds”; for B3: “binds”.
Same read-out and setting: the same measure for B4: “binds”; for B5: “binds”.
With B6, the binding result is on record as “binds”.
B7: the binding result is “binds”.
Regarding B8, the binding result is “binds”.
As for B9, the binding result is on record as “binds”.
As to B10, the binding result is on record as “binds”.
B11: the binding result is on record as “binds”.
Regarding B12, the binding result is “binds”.
On to B13, for which the binding result is reported as “binds”.
In the case of B14, the binding result is recorded as “binds”.
B15: the binding result is given as “binds”.
Same read-out and setting: to B16 belongs “binds”; to B17, “binds”; to B18, “binds”.
Take B19: the binding result is reported as “binds”.
In the case of B20, the binding result is recorded as “binds”.
